# Reference: article PMC4489622
# Values joined by “and” are separate entries in the source; they are usually repeats but may differ in a detail not shown here. Equal entries are not always repeated.
# What was measured:
# [1] = molecular target: Helicobacter pylori DNA processing protein A (HpDprA), full length, strain J99 (Helicobacter pylori strain J99) (UniProt B5ZAA1); experiment: SPR; BIAcore 3000; the same protein amine-coupled on a CM5 chip (~1000 RU) and injected; 25 °C, 10 mM HEPES pH 7.4, 150 mM NaCl, 1 mM EDTA, 0.05% P-20, 20 µl/min; kon from 1:1 Langmuir fit, koff from the main phase of a biphasic dissociation, Kd = koff/kon
# [2] = molecular target: Helicobacter pylori DNA processing protein A (HpDprA), full length, strain J99 (Helicobacter pylori strain J99) (UniProt B5ZAA1); experiment: SEC; Superdex 75 HR 10/300, 1X PBS, 0.3 ml/min, 500 µl injected, protein at 2 mg/ml, apparent mass from standards
# [3] = molecular target: Helicobacter pylori DNA processing protein A (HpDprA), full length, strain J99 (Helicobacter pylori strain J99) (UniProt B5ZAA1); experiment: cross-linking; glutaraldehyde on ice, SDS-10% PAGE, silver staining; HpDprA 5 µM with 0.01% to 0.5% glutaraldehyde at 4 °C for 15 min; conditions for HpRF in the legend of Fig B in S1 File
# [4] = molecular target: HpDML1, C-terminal DML-1 like domain of HpDprA (residues 213-266) (Helicobacter pylori strain J99) (UniProt B5ZAA1); experiment: cross-linking; glutaraldehyde on ice, SDS-12% PAGE, silver staining; HpDML1 at 140 µM, longer incubation with the cross-linker
# [5] = molecular target: HpDML1, C-terminal DML-1 like domain of HpDprA (residues 213-266) (Helicobacter pylori strain J99) (UniProt B5ZAA1); experiment: SPR; BIAcore 3000; the same protein amine-coupled on a CM5 chip (~1000 RU) and injected; 25 °C, 10 mM HEPES pH 7.4, 150 mM NaCl, 1 mM EDTA, 0.05% P-20, 20 µl/min; kon from 1:1 Langmuir fit, koff from the main phase of a biphasic dissociation, Kd = koff/kon
# [6] = molecular target: HpDML1, C-terminal DML-1 like domain of HpDprA (residues 213-266) (Helicobacter pylori strain J99) (UniProt B5ZAA1); experiment: SEC; Superdex 75 HR 10/300, 1X PBS, 0.3 ml/min, 500 µl injected, protein at 8 mg/ml, apparent mass from standards
# [7] = molecular target: HpRF, N-terminal Rossmann fold domain of HpDprA (residues 1-212) (Helicobacter pylori strain J99) (UniProt B5ZAA1); experiment: SPR; BIAcore 3000; the same protein amine-coupled on a CM5 chip (~1000 RU) and injected; 25 °C, 10 mM HEPES pH 7.4, 150 mM NaCl, 1 mM EDTA, 0.05% P-20, 20 µl/min; kon from 1:1 Langmuir fit, koff from the main phase of a biphasic dissociation, Kd = koff/kon
# [8] = molecular target: HpRF, N-terminal Rossmann fold domain of HpDprA (residues 1-212) (Helicobacter pylori strain J99) (UniProt B5ZAA1); experiment: SEC; Superdex 75 HR 10/300, 1X PBS, 0.3 ml/min, 500 µl injected, protein at 2 mg/ml, apparent mass from standards
# [9] = molecular target: HpRF, N-terminal Rossmann fold domain of HpDprA (residues 1-212) (Helicobacter pylori strain J99) (UniProt B5ZAA1); experiment: cross-linking; glutaraldehyde on ice, SDS-10% PAGE, silver staining; HpDprA 5 µM with 0.01% to 0.5% glutaraldehyde at 4 °C for 15 min; conditions for HpRF in the legend of Fig B in S1 File
substance,measurement,setting,value
"Helicobacter pylori DNA processing protein A (HpDprA), full length, strain J99 (from UniProt B5ZAA1 1-266) (natural protein)",Kd,[1],22.3 nM
same,stoichiometry N,[2],2
same,stoichiometry N,[3],2 and 3
"HpDML1, C-terminal DML-1 like domain of HpDprA (residues 213-266) (from UniProt B5ZAA1 213-266) (domain or fragment)",stoichiometry N,[4],2
same,Kd,[5],2350 nM
same,stoichiometry N,[6],2
"HpRF, N-terminal Rossmann fold domain of HpDprA (residues 1-212) (from UniProt B5ZAA1 1-212) (domain or fragment)",Kd,[7],22.8 nM
same,stoichiometry N,[8],2
same,stoichiometry N,[9],2
